# From patent US8871205B2, “Methods and compositions for the treatment of immune disorders” (The University of North Carolina at Chapel Hill, priority 2009, dated 2014)
# System: WT or Plxna4−/− peritoneal macrophages
# Assay: TNF-α and IL-6 production (RT-PCR, ELISA) in peritoneal macrophages stimulated with Sema3A-Fc or Sema6A-Fc in the absence or presence of LPS
# Assay type: cell-based, mouse
# Conditions: semaphorin alone, absence of LPS; macrophages
# Method: Messenger RNA (FIG. 7A) or protein (FIG. 7B) levels of TNF-α and IL-6 were measured by RT-PCR and ELISA, respectively. The IgG Fc fragment (100 μg/ml) was used as a negative control. WT and Plxna4^−/− mice (n=7˜9 per group) were pretreated with either Sema3A-Fc or IgG Fc control proteins at a dosage of 25 μg per kg body weight 1 h prior to CLP procedure (FIG. 7C). Survival rate was monitored for 5 days. τP<0.05 compared with WT mice pretreated with Sema3A-Fc. WT mice (n=4 per group) were pretreated with either Sema3A-Fc or IgG Fc control proteins, followed by CLP surgery (FIG. 7D). Inflammatory cytokines in peritoneal lavage collected 4 h after CLP were determined by ELISA. * P<0.05 compared to peritoneal lavage from WT mice pretreated with Sema3A-Fc (FIG. 7E). […] Inflammatory cytokines in peritoneal lavage collected 4 h after CLP were determined by ELISA. *P<0.05 compared with peritoneal lavage from WT mice pretreated with Sema3A-Fc (FIG. 7G).
# Total peritoneal cells were harvested from the peritoneal cavities of naïve WT or Plxna4^−/− mice with two 10 ml cold sterile PBS wash. […] The remaining cells were thoroughly washed with PBS and counted in a hemocytometer. Cytospins were prepared and stained with Diff-Quik solutions, and the number of peritoneal macrophages was determined. […]
molecule,measurement,value
"Sema6A: human Sema6A-Fc (1146-S6, R&D); chimeric protein of human IgG1 Fc fragment fused to Sema6A (protein, left off: a dimerising Fc or GST, human Sema6A-Fc (1146-S6, R&D); chimeric protein of human IgG1 Fc fragment fused to Sema6A) GFPEDSEPISISHGNYTKQYPVFVGHKPGRNTTQRHRLDIQMIMIMNGTLYIAARDHIYTVDIDTSHTEEIYCSKKLTWKSRQADVDTCRMKGKHKDECHNFIKVLLKKNDDALFVCGTNAFNPSCRNYKMDTLEPFGDEFSGMARCPYDAKHANVALFADGKLYSATVTDFLAIDAVIYRSLGESPTLRTVKHDSKWLKEPYFVQAVDYGDYIYFFFREIAVEYNTMGKVVFPRVAQVCKNDMGGSQRVLEKQWTSFLKARLNCSVPGDSHFYFNILQAVTDVIRINGRDVVLATFSTPYNSIPGSAVCAYDMLDIASVFTGRFKEQKSPDSTWTPVPDERVPKPRPGCCAGSSSLERYATSNEFPDDTLNFIKTHPLMDEAVPSIFNRPWFLRTMVRYRLTKIAVDTAAGPYQNHTVVFLGSEKGIILKFLARIGNSGFLNDSLFLEEMSVYNSEKCSYDGVEDKRIMGMQLDRASSSLYVAFSTCVIKVPLGRCERHGKCKKTCIASRDPYCGWIKEGGACSHLSPNSRLTFEQDIERGNTDGLGDCHNSFVALNGHSSSLLPSTTTSDSTAQEGYESRGGMLDWKHLLDSPDSTDPLGAVSSHNHQDKKGVIRESYLKGHDQLVPVT",TNF-α and IL-6 production,Neither Sema3A nor Sema6A alone induced
